In article PMC10397247:
Values belong to the binder of their own block, whether it stands above or below them.

Key:
P2-AA-1HAA-D = biological target: T1, P2-AA-1HAA-D; experiment: two-hybrid library CCmax; conditions: mean of both orientations;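 further: natural log of median RNA to DNA barcode read ratio; higher means stronger binding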
T1 chain: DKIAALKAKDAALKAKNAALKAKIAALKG

P2-AA-1HAA-E = biological target: T2, P2-AA-1HAA-E; experiment: two-hybrid library CCmax; conditions: mean of both orientations;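 further: natural log of median RNA to DNA barcode read ratio; higher means stronger binding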
T2 chain: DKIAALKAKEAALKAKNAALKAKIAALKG

P2-AA-1HAA-H = biological target: T3, P2-AA-1HAA-H; experiment: two-hybrid library CCmax; conditions: mean of both orientations;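 further: natural log of median RNA to DNA barcode read ratio; higher means stronger binding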
T3 chain: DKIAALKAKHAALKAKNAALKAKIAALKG

P2-AA-1HAA-I = biological target: T4, P2-AA-1HAA-I; experiment: two-hybrid library CCmax; conditions: mean of both orientations;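 further: natural log of median RNA to DNA barcode read ratio; higher means stronger binding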
T4 chain: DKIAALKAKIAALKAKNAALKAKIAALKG

P2-AA-1HAA-R = biological target: T5, P2-AA-1HAA-R; experiment: two-hybrid library CCmax; conditions: mean of both orientations
T5 chain: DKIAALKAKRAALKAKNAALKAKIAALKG

P2-AA-1HAA-S = biological target: T6, P2-AA-1HAA-S; experiment: two-hybrid library CCmax; conditions: mean of both orientations
T6 chain: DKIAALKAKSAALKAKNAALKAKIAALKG

P2-AA-1HAA-T = biological target: T7, P2-AA-1HAA-T; experiment: two-hybrid library CCmax; conditions: mean of both orientations
T7 chain: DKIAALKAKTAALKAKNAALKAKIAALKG

P2-AA-1HAA-V = biological target: T8, P2-AA-1HAA-V; experiment: two-hybrid library CCmax; conditions: mean of both orientations
T8 chain: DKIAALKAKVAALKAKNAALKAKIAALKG

P2-AA = biological target: T9, P2-AA; experiment: two-hybrid library CCmax; conditions: mean of both orientations
T9 chain: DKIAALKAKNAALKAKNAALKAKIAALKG

4H1158-bA = biological target: T10, 4H1158-bA; experiment: two-hybrid library CCNG1
T10 chain: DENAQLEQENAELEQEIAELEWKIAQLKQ

4H118-bA = biological target: T11, 4H118-bA; experiment: two-hybrid library CCNG1
T11 chain: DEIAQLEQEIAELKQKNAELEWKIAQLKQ

4H170-bA = biological target: T12, 4H170-bA; experiment: two-hybrid library CCNG1
T12 chain: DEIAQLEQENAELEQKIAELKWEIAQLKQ

4H1831-bA = biological target: T13, 4H1831-bA; experiment: two-hybrid library CCNG1
T13 chain: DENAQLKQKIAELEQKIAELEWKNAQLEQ

4H2253-bA = biological target: T14, 4H2253-bA; experiment: two-hybrid library CCNG1
T14 chain: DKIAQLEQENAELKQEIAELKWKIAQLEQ

4H2586-bA = biological target: T15, 4H2586-bA; experiment: two-hybrid library CCNG1
T15 chain: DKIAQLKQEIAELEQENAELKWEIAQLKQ

4H2627-bA = biological target: T16, 4H2627-bA; experiment: two-hybrid library CCNG1
T16 chain: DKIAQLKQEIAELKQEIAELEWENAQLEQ

4H2673-bA = biological target: T17, 4H2673-bA; experiment: two-hybrid library CCNG1
T17 chain: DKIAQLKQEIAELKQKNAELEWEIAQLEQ

4H2702-bA = biological target: T18, 4H2702-bA; experiment: two-hybrid library CCNG1
T18 chain: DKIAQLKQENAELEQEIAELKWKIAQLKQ

4H3010-bA = biological target: T19, 4H3010-bA; experiment: two-hybrid library CCNG1
T19 chain: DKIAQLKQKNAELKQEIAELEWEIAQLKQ

4H3112-bA = biological target: T20, 4H3112-bA; experiment: two-hybrid library CCNG1
T20 chain: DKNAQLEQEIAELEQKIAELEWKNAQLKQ

4H3427-bA = biological target: T21, 4H3427-bA; experiment: two-hybrid library CCNG1
T21 chain: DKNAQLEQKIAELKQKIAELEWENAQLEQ

4H346-bA = biological target: T22, 4H346-bA; experiment: two-hybrid library CCNG1
T22 chain: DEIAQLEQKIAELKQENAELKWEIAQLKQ

4H3926-bA = biological target: T23, 4H3926-bA; experiment: two-hybrid library CCNG1
T23 chain: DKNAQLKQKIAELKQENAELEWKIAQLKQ

4H4073-bA = biological target: T24, 4H4073-bA; experiment: two-hybrid library CCNG1
T24 chain: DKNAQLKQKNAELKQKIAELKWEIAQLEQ

4H457-bA = biological target: T25, 4H457-bA; experiment: two-hybrid library CCNG1
T25 chain: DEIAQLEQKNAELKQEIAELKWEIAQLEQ

4H575-bA = biological target: T26, 4H575-bA; experiment: two-hybrid library CCNG1
T26 chain: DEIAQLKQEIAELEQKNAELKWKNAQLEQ

4H683-bA = biological target: T27, 4H683-bA; experiment: two-hybrid library CCNG1
T27 chain: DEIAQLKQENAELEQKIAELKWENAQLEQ

4H754-bA = biological target: T28, 4H754-bA; experiment: two-hybrid library CCNG1
T28 chain: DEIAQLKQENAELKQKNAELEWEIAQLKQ

4H780-bA = biological target: T29, 4H780-bA; experiment: two-hybrid library CCNG1
T29 chain: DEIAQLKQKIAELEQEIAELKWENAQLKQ

4H797-bA = biological target: T30, 4H797-bA; experiment: two-hybrid library CCNG1
T30 chain: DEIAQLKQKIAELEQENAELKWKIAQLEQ

4H855-bA = biological target: T31, 4H855-bA; experiment: two-hybrid library CCNG1
T31 chain: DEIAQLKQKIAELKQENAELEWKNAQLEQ

4H918-bA = biological target: T32, 4H918-bA; experiment: two-hybrid library CCNG1
T32 chain: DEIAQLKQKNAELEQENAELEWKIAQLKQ

4H953-bA = biological target: T33, 4H953-bA; experiment: two-hybrid library CCNG1
T33 chain: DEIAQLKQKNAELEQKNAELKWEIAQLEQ

4H968-bA = biological target: T34, 4H968-bA; experiment: two-hybrid library CCNG1
T34 chain: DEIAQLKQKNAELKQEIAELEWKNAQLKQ

- interaction score (P2-AA-1HAA-D): 1.71
- interaction score (P2-AA-1HAA-E): 1.89
- interaction score (P2-AA-1HAA-H): 1.95
- interaction score (P2-AA-1HAA-I): 1.62
- interaction score (P2-AA-1HAA-R): 1.98
- interaction score (P2-AA-1HAA-S): 1.77
- interaction score (P2-AA-1HAA-T): 1.93
- interaction score (P2-AA-1HAA-V): 1.87
- interaction score (P2-AA): 1.84
Binder: DEIAALEAELAALEAENAALEAEIAALEG [P1-AA-1HAA-L]

- interaction score (4H1158-bA): -0.559
- interaction score (4H118-bA): 0.591
- interaction score (4H170-bA): -1.67
- interaction score (4H1831-bA): 0.132
- interaction score (4H2253-bA): 0.12
- interaction score (4H2586-bA): -0.706
- interaction score (4H2627-bA): 1.15
- interaction score (4H2673-bA): -0.0392
- interaction score (4H2702-bA): 0.584
- interaction score (4H3010-bA): 2.11
- interaction score (4H3112-bA): -0.0196
- interaction score (4H3427-bA): 0.681
- interaction score (4H346-bA): -0.31
- interaction score (4H3926-bA): 0.769
- interaction score (4H4073-bA): 2.53
- interaction score (4H457-bA): 1.02
- interaction score (4H575-bA): 0.324
- interaction score (4H683-bA): -1.19
- interaction score (4H754-bA): -0.283
- interaction score (4H780-bA): 0.459
- interaction score (4H797-bA): 0
- interaction score (4H855-bA): 0.0299
- interaction score (4H918-bA): -0.069
- interaction score (4H953-bA): -0.12
- interaction score (4H968-bA): 0.0766
Binder: DENAQLEQENAELEQEIAELEWKIAQLKQ [4H1158-bA]
